Test results reported in PMC12254369, “Small molecule disruption of RARα/NCoR1 interaction inhibits chaperone-mediated autophagy in cancer” (EMBO Molecular Medicine, 2025).
Ends that are not written are not given here. * marks the point of attachment. FITC = O=C1OC2(c3ccc(O)cc3Oc3cc(O)ccc32)c2ccc(NC(=S)*)cc21; Ahx = NCCCCCC(=O)O

Tests used:
[1] = molecular target: T1, His-tagged RARα LBD with FITC-SRC (Homo sapiens, UniProt P10276); test: TR-FRET coactivator peptide recruitment; assay type: binding; conditions: 3 nM His-RARα LBD, 50 nM FITC-SRC, 5 mM DTT, pH 7.4, 1 h; agonist
T1 construct: gene RARA; LBD residues 176-462 with His tag
T1 sequence (P10276 176-462): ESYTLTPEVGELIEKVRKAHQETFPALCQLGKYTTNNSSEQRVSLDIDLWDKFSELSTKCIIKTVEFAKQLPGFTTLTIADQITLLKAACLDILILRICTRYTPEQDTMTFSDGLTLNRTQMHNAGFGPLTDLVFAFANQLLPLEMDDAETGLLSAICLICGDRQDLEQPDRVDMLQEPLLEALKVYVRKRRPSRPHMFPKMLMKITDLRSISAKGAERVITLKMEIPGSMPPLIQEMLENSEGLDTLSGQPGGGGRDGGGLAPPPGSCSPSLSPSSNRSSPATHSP

[2] = molecular target: T2, Recombinant RARα LBD (ligand binding domain of human retinoic acid receptor alpha, residues 176-462, … (human, UniProt P10276 176-462)); test: fluorescence polarisation; RARα LBD serially diluted from 50 µM, 5 nM FITC-NCoR1 peptide; 20 mM HEPES, 150 mM NaCl, 5 mM DTT, pH 7.5; read at 1 h; with DMSO, 25 µM CIM7, 10 µM ATRA or AM580; conditions: both partners purified
T2 construct: The His tag is detected by the anti-6HIS Tb cryptate antibody in the TR-FRET assay; also called His-tagged RARα LBD; source: E. coli BL21(DE3), purified (Ni-NTA, Superdex 200 gel filtration); not shown: His tag, N-terminal, kept
T2 sequence (looked up): T1 sequence (P10276 176-462)

[3] = molecular target: T2, Recombinant RARα LBD (ligand binding …); test: AlphaScreen or HTRF; TR-FRET: 3 nM His-tagged RARα LBD, 0.5 nM anti-6HIS Tb cryptate (donor), 50 nM FITC-SRC (acceptor); 1x PBS, 0.02% Pluronic F-127, 5 mM DTT, pH 7.4; 1 h; increasing concentrations of CIM7, ATRA or AM580; conditions: both partners purified

Question: Which “TR-FRET coactivator peptide recruitment” value [1] does the source give for CC1=C(/C=C/C(C)=C/C=C/C(C)=C/C(=O)O)C(C)(C)CCC1 [ATRA, All-trans retinoic acid] here?
Answer: rather enhance binding of the coactivator, SRC

B1: FITC-NCoR1 peptide (FITC-Ahx-RLITLADHICQIITQDFAR) (peptide)
peptide: {FITC-Ahx}-RLITLADHICQIITQDFAR
notes: peptide of nuclear receptor corepressor 1 (NCoR1); also called NCoR1 fluorescent peptide; source: synthetic peptide (GenScript, purity >95%)
Question: Does B1 bind [2]?
Answer: binds

B2: FITC-SRC peptide (FITC-Ahx-RHKILHRLLQEGS) (peptide)
peptide: {FITC-Ahx}-RHKILHRLLQEGS
notes: source: synthetic peptide (GenScript, purity >95%)
Question: Does B2 bind [3]?
Answer: binds
